A word on the Kd: it is the constant that tells how readily two partners part at equilibrium.

Some targets named below: HLA-A*02:03; HLA-A*02:06; HLA-A*33:01; HLA-A*11:01; HLA-A*31:01; HLA-A*03:01; HLA-A*68:01.
Holding throughout (experiment): IEDB peptide-MHC binding, purified MHC/competitive/radioactivity; filed as Kd, often an IC50 or EC50 that approximates it; ≥ and ≤ were set here for values at or beyond the usual limits of such assays
The target of another test is HLA-A*02:02. The conditions noted are these: source organism: Vaccinia virus WR.
[1] abbreviates: source organism: Vaccinia virus WR.
Where [2] appears, read: source organism: Dengue virus 1 Brazil/97-11/1997.
[3] abbreviates: source organism: Dengue virus 4 Philippines/H241/1956.
The mark [4] stands for this setting: source organism: SARS coronavirus Tor2.
Where [5] appears, read: source organism: Vaccinia virus Copenhagen.

Where only a bound is given, the exact number is not on record here.

Take QQFANVISKI: the Kd is 1.7 nM with HLA-A*02:03 (setting [1]), 863 nM in the test with HLA-A*02:06 (setting [1]) and 51.5 nM with HLA-A*02:02.

As to FLPQIGGEA, the values for the Kd in the test with HLA-A*02:03 (setting [1]), with HLA-A*02:06 (setting [1]) and with HLA-A*02:02 were 121 nM, 95.8 nM and 21.1 nM, respectively.

As for TLYAVATTVI, the Kd with HLA-A*02:03 (setting [2]) stood at 195 nM.

NIVASVNMV: in the test with HLA-A*02:03 (source organism: Dengue virus 3 Martinique/1243/1999), the dissociation constant Kd is 82.9 nM.

For the sequence TLLNETAKVI, the Kd with HLA-A*02:03 (setting [1]) is 2130 nM; in the test with HLA-A*02:06 (setting [1]), 8550 nM; with HLA-A*02:02, 2860 nM.

For VIRNEVNDT, the equilibrium dissociation constant (Kd) with HLA-A*02:03 (setting [1]) was 820 nM; with HLA-A*02:06 (setting [1]) it was at least 77100 nM; with HLA-A*02:02, 19900 nM.

On to LLFMILTVAA, for which the dissociation constant (Kd) in the test with HLA-A*02:03 (setting [2]) stood at 468 nM.

With YVLGIFLRKL, the Kd with HLA-A*02:06 (setting [3]) came out at 32.6 nM.

On to DLNSFEQLCI, for which the Kd with HLA-A*02:06 (source organism: Homo sapiens) was at least 128000 nM.

In the case of KVIGLYGNGV, the Kd with HLA-A*02:06 (setting [3]) came out at 12.3 nM.

LLMLVTPSMA: the equilibrium dissociation constant (Kd) with HLA-A*02:03 (setting [2]) came to 23.6 nM.

In the case of LTSMKYFVK, the equilibrium dissociation constant (Kd) in the test with HLA-A*33:01 (setting [4]) came to 939 nM; with HLA-A*11:01 (setting [4]) it was 19.9 nM; in the test with HLA-A*31:01 (setting [4]), 74.9 nM; in the test with HLA-A*03:01 (setting [4]), 223 nM; with HLA-A*68:01 (setting [4]), 234 nM.

Take LVYIFEPEK: the Kd with HLA-A*33:01 (setting [1]) is at least 77700 nM; in the test with HLA-A*11:01 (setting [1]), 24.9 nM; with HLA-A*31:01 (setting [1]) it was at least 21100 nM; with HLA-A*03:01 (setting [1]), 382 nM; with HLA-A*68:01 (setting [1]), 130 nM.

Take SLAIKNYYR: the Kd is at least 77700 nM with HLA-A*33:01 (setting [5]); 6060 nM in the test with HLA-A*11:01 (setting [5]); 3100 nM in the test with HLA-A*31:01 (setting [5]); at least 43000 nM with HLA-A*03:01 (setting [5]); 6410 nM in the test with HLA-A*68:01 (setting [5]).

Take WQIEKASLI: the Kd in the test with HLA-A*02:06 (setting [3]) was found to be 43.5 nM.

As for NIQKITVFNK, the Kd with HLA-A*33:01 (setting [1]) is 1200 nM; with HLA-A*11:01 (setting [1]) it was 5.8 nM; with HLA-A*31:01 (setting [1]), 3.89 nM; in the test with HLA-A*03:01 (setting [1]), 47.4 nM; in the test with HLA-A*68:01 (setting [1]), 30.5 nM.

Regarding SMTIREFPRK, the Kd was 6880 nM with HLA-A*33:01 (setting [1]); 3.18 nM with HLA-A*11:01 (setting [1]); 39.6 nM in the test with HLA-A*31:01 (setting [1]); 10.1 nM with HLA-A*03:01 (setting [1]); 1250 nM with HLA-A*68:01 (setting [1]).

In the case of VLKAMHDKK, the Kd in the test with HLA-A*33:01 (setting [1]) worked out at 977 nM; in the test with HLA-A*11:01 (setting [1]) it was 364 nM; with HLA-A*31:01 (setting [1]) it was 126 nM; in the test with HLA-A*03:01 (setting [1]), 263 nM; with HLA-A*68:01 (setting [1]) it was 3420 nM.

Turning to VAEHRFENMK, the Kd was at least 70000 nM with HLA-A*33:01 (setting [1]); 788 nM with HLA-A*11:01 (setting [1]); at least 34700 nM in the test with HLA-A*31:01 (setting [1]); 4870 nM with HLA-A*03:01 (setting [1]); 5730 nM with HLA-A*68:01 (setting [1]).

Take ILAALFMYY: the Kd with HLA-A*33:01 (setting [1]) was determined as 16000 nM; with HLA-A*11:01 (setting [1]), 0.309 nM; with HLA-A*31:01 (setting [1]), 6400 nM; with HLA-A*03:01 (setting [1]), 0.175 nM; in the test with HLA-A*68:01 (setting [1]), 36.3 nM.

On to KLILAEYIR, for which the dissociation constant Kd stood at 9560 nM in the test with HLA-A*33:01 (setting [1]); 15200 nM with HLA-A*11:01 (setting [1]); 68.1 nM in the test with HLA-A*31:01 (setting [1]); 8070 nM in the test with HLA-A*03:01 (setting [1]); 2090 nM with HLA-A*68:01 (setting [1]).

For the sequence GFNTLKPIFK, the equilibrium dissociation constant (Kd) in the test with HLA-A*33:01 (setting [4]) stood at 19600 nM; with HLA-A*11:01 (setting [4]), 105 nM; in the test with HLA-A*31:01 (setting [4]), 1830 nM; with HLA-A*03:01 (setting [4]), 140 nM; with HLA-A*68:01 (setting [4]), 1960 nM.

For the sequence DLLFNEKLK, the Kd with HLA-A*33:01 (setting [1]) is 744 nM; with HLA-A*11:01 (setting [1]), 188 nM; in the test with HLA-A*31:01 (setting [1]), 8150 nM; with HLA-A*03:01 (setting [1]) it was 1920 nM; with HLA-A*68:01 (setting [1]), 29.2 nM.

As for VIEYAKSISK, the dissociation constant Kd is 17500 nM in the test with HLA-A*33:01 (setting [1]); 165 nM with HLA-A*11:01 (setting [1]); 10800 nM with HLA-A*31:01 (setting [1]); 129 nM with HLA-A*03:01 (setting [1]); 2720 nM with HLA-A*68:01 (setting [1]).

Regarding TINVNSLALK, the Kd in the test with HLA-A*33:01 (setting [1]) was 4000 nM; in the test with HLA-A*11:01 (setting [1]), 18.7 nM; in the test with HLA-A*31:01 (setting [1]), 1120 nM; with HLA-A*03:01 (setting [1]), 17.3 nM; in the test with HLA-A*68:01 (setting [1]) it was 6.2 nM.

Regarding STAEQLSKY, the dissociation constant Kd with HLA-A*33:01 (setting [1]) was at least 77700 nM; with HLA-A*11:01 (setting [1]), 133 nM; with HLA-A*31:01 (setting [1]), at least 77900 nM; with HLA-A*03:01 (setting [1]), 2430 nM; with HLA-A*68:01 (setting [1]), 54.9 nM.

As for VQIENLEYTV, the equilibrium dissociation constant (Kd) in the test with HLA-A*02:06 (setting [3]) worked out at 4.4 nM.

As for TMPNESRVK, the dissociation constant Kd with HLA-A*33:01 (setting [1]) is at least 77700 nM; with HLA-A*11:01 (setting [1]), 930 nM; with HLA-A*31:01 (setting [1]), at least 61600 nM; in the test with HLA-A*03:01 (setting [1]), 17500 nM; with HLA-A*68:01 (setting [1]) it was 2040 nM.

Consider GLVSLLGSA, for which the Kd in the test with HLA-A*02:03 (setting [3]) worked out at 4.12 nM.

For PVSDLYTSMR, the dissociation constant Kd was 346 nM in the test with HLA-A*33:01 (setting [1]); 638 nM with HLA-A*11:01 (setting [1]); 539 nM in the test with HLA-A*31:01 (setting [1]); 6260 nM in the test with HLA-A*03:01 (setting [1]); 1.3 nM with HLA-A*68:01 (setting [1]).

As to RSAFNDDGIY, the Kd with HLA-A*33:01 (setting [1]) is at least 70000 nM; with HLA-A*11:01 (setting [1]), at least 66400 nM; with HLA-A*31:01 (setting [1]), at least 70000 nM; with HLA-A*03:01 (setting [1]) it was at least 70100 nM; in the test with HLA-A*68:01 (setting [1]), at least 31800 nM.

For the origin of these results see the Immune Epitope Database (IEDB).
